# No end group written: not given here. Pam2 = lipid part of the lipopeptide Pam2CSK4
# B1: Pam2CSK4 lipopeptide (peptide)
# peptide: C(Pam2)SKKKK
# Target: soluble form of human recombinant TLR2 (extracellular domain Glu 21-Leu 590) (human, UniProt O60603 21-590)
# Sequence (O60603 21-590): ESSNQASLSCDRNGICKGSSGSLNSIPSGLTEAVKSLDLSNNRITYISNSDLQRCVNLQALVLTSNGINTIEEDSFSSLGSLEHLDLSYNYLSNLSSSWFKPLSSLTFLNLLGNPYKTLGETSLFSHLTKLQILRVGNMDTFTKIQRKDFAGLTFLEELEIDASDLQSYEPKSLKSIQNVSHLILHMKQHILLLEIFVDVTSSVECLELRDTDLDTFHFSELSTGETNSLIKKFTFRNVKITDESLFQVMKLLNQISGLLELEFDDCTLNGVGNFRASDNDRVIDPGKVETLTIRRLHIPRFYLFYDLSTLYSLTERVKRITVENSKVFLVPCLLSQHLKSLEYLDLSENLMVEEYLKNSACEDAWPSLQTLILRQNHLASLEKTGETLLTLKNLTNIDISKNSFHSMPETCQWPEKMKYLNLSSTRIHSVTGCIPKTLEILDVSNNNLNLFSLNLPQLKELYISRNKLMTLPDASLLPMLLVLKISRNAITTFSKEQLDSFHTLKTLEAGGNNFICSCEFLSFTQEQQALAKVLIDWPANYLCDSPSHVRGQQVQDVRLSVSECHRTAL
binder,measurement,value
B1,Kd,5.34 µM

# Reference: publication PMC2413007 (2008)
